# Measurements: US20220017604A1 (WASHINGTON UNIVERSITY, published 2022)
# Several values for one entry are separate records, joined by “and”; a condition that tells them apart may be missing. Identical values can stand only once.
# B1: Hu-Ab-1 (Hu-2B04) (antibody, V domains shown)
# VH: EVQLQESGPGLVKPSETLSLTCTVSGFSLINYAISWVRQPAGKGLEWLGVIWTGGGTNYNAALKSRLSISKDNSKSQVSLKMNSVTAADTAVYYCARKDYYGRYYGMDYWGQGTTVTVSS
# VL: QAVVTQEPSLTVSPGGTVTLTCRSSTGAVTTSNYANWVQEKPGQAFRGLIGGTNNRAPGVPARFSGSLLGDKAALTLSGAQPEDEAEYFCALWYNNHWVFGGGTKLTVLG
# B2: 2H04 (antibody, V domains shown)
# VH: EVQLQQSGAELVKPGASVKMSCKASGYTFTSYWITWVKQRPGQGLEWIGDIYPGSGSTKYNEKFRSEATLTVDTSSTTAYMQLSSLTSEDSAVYYCARWDFYGSRTFDYWGQGTTLTVSS
# VL: DIVLTQSPAILSVSPGERVSFSCRASQNIGTIIHWYQQRTNGSPRLLIKYASESVSGIPSRFSGSGSGTDFTLSINSVESEDIADYYCQQSSSWPLTFGAGTKLELK
# B3: murine/human chimeric mAb Ab-1 (2B04) (antibody, V domains shown)
# VH: QVQLKQSGPGLVAPSQSLSITCTVSGFSLINYAISWVRQPPGKGLEWLGVIWTGGGTNYNSALKSRLSISKDNSKSQVFLKMNSLQTDDTARYYCARKDYYGRYYGMDYWGQGTSVTVSS
# VL: QAVVTQESALTTSPGETVTLTCRSSTGAVTTSNYANWVQEKPDHLFTGLIGGTNNRAPGVPARFSGSLIGDKAALTITGAQTEDEAIYFCALWYNNHWVFGGGTKLTVL
# Target: S protein of infectious SARS-CoV-2 strain 2019 n-CoV/USA_WA1/2020 (SARS-CoV-2, UniProt P0DTC2 14-1273)
# Experiment: cell-based or functional assay
Binder,"IC50, live virus neutralization assay","IC50, neutralization of infectious SARS-CoV-2","IC50, focus reduction neutralization test (FRNT) on Vero E6 cells"
B1,1.65 ng/mL,,
B2,,< 500 ng/mL,
B3,,< 2 ng/mL and < 500 ng/mL,1.46 ng/mL
